Experimental findings from publication PMC5316805, “Potent single-domain antibodies that arrest respiratory syncytial virus fusion protein in its prefusion state” (Nature Communications, 2017) are described below.

For experiment [1], the target named is RSV A2 F, full length, on RSV A2-infected cells and virions (human respiratory syncytial virus A2, UniProt P03420). Kind of experiment: cell-based or functional assay.
For experiment [2], the target named is T1, prefusion-stabilized RSV F (DS-Cav1) with a C-terminal Strep-tag II and 6X HisTag (human respiratory syncytial virus A2 …, stabilised).
T1 construct: RSV fusion (F) protein, F2 subunit (N-terminal cut product of F0) of DS-Cav1; RSV fusion (F) protein, soluble part of the F1 subunit (C-terminal cut product of F0) of DS-Cav1; also called prefusion F; prefusion RSV F; source: purified; not shown: Strep-tag II, C-terminal, kept; His6, C-terminal, kept; copies: 3 + 3
Kind of experiment: SPR; DS-Cav1 captured by its His tag on an NTA chip to ~530 RU each cycle (Biacore X100); VHH 2-fold dilutions 5 nM to 39.1 pM in HBS-P+; double-reference subtracted, 1:1 binding model (Scrubber). Particulars: both partners purified.

B1: F-VHH-4 (VHH)
VHH: QVQLQESGGGLVQPGGSLRLSCAASGFTLDYYYIGWFRQAPGKEREAVSCISGSSGSTYYPDSVKGRFTISRDNAKNTVYLQMNSLKPEDTAVYYCATIRSSSWGGCVHYGMDYWGKGTQVTVSS
notes: llama VHH; also in PDB 5TP3 and 5TOJ; Disulfide between Cys50 (CDR2) and Cys100c (CDR3), Kabat numbering; the Pichia-made protein was used in the complex crystals; also called clone 4; source: P. pastoris GS115, secreted, purified (ammonium sulfate precipitation, HisTrap HP, Superdex 75); not shown: His6, C-terminal, kept
As to B1, the “plaque-reduction neutralisation of RSV A2 and RSV B49 on Vero cells, IC50” value in experiment [1] is below 0.1 nM. In experiment [2], this molecule came in with a Kd below 0.018 nM, a koff below 1e-05 s⁻¹ and a kon of 570000 M⁻¹ s⁻¹.

B2: F-VHH-L66 (VHH)
VHH: QVQLQESGGGLVQPGGSLRLSCAASGFTLDYYYIGWFRQAPGKEREGVSCISSSHGSTYYADSVKGRFTISRDNAKNTVYLQMNSLKPEDTAVYYCATVAVAHFRGCGVDGMDYWGKGTQVTVSS
notes: llama VHH; also in PDB 5TOK; Disulfide between Cys50 (CDR2) and Cys100c (CDR3), Kabat numbering; source: P. pastoris GS115, secreted, purified (ammonium sulfate precipitation, HisTrap HP, Superdex 75); not shown: His6, C-terminal, kept
Regarding B2, the “plaque-reduction neutralisation of RSV A2 and RSV B49 on Vero cells, IC50” value in experiment [1] is below 0.1 nM. For the same molecule, in experiment [2], binding was characterised by a dissociation constant (Kd) of 0.154 nM, the koff amounted to 5e-05 s⁻¹ and the kon turned out to be 330000 M⁻¹ s⁻¹.

Usually Kd stands for the free concentration of one partner at which half of the binding sites on the other are occupied at equilibrium, for simple one-to-one binding. Higher therefore signals lower affinity. As usually defined, the koff is the rate constant with which the complex falls apart. A high value points to fast dissociation. As a reminder, the kon is a measure of how fast the partners come together. A low value points to slower complex formation.
